One data set concerns SKRC52 xenograft tumors. The settings on record: for tumor growth effect: 5 doses of 4 nmol on 5 consecutive days, 7a vs vehicle p<0.0001, vs 7b plus AAZ p<0.05. How it is done:
SKRC52 xenograft tumors were implanted into balb/c nu/nu mice (Charles River) as described above. […] 5 doses of 4 nmol 7a,b, 8a,b or 7 doses of 70 nmol 9a,b each in PBS pH 7.4 (150 μL) containing 5% DMSO were given on 5 or 7 consecutive days and one group was treated with vehicle (5% DMSO in PBS pH 7.4). In the case of 7-9b an equimolar amount of AAZ was added to the injection solution to control for a possible antitumor activity of CAIX inhibitors. Sorafenib and sunitnib were administered at a standard dose of 30 mg/kg as described previously.^[5] Animals were weighed and tumor sizes measured daily and the tumor volume calculated according to the formula (long side)×(short side)^2×0.5. […] Prism 6 (GraphPad Software) was used for data analysis (regular two-way ANOVA with the Bonferroni test).

Data set [1] relates to CAIX expressing SKRC52 cells. The experiment in a line: In vitro cytotoxicity assay (MTS). It is filed as cell-based, human. The settings on record: Condition (b): 1 h exposure, wash, then 72 h; concentrations up to 300 nM. How it is done: SKRC52 or A549 cells were seeded in 96-well plates in their appropriate culture medium (100 μL) at a density of 5000 cells per well and allowed to grow for 24 h. The medium was replaced with medium containing different concentrations of test substance (100 μL, 300 nM-15 pM in 1:3 dilution steps) and plates were either:
(a) incubated for 72 hours in the presence of the toxic substance, or
(b) incubated for 1 h under standard culture conditions, followed by removal of the medium containing the toxic substance, gently washing the cells fresh medium once and adding new medium (100 μL) and incubating for 72 h under culture conditions.
MTS cell viability dye (20 μL, Promega) was added, the plates were incubated for 1 h under culture conditions and the absorbance at 490 nm measured on a Spectra Max Paradigm multimode plate reader (Molecular Devices). Experiments were performed in triplicate and average cell viability calculated as measured background corrected absorbance divided by the absorbance of untreated control wells. EC50 values were determined by fitting data to the four-parameter logistic equation.

Data set [2] is described as follows: Stability in mouse plasma/serum at 37 C. The class given is in vitro ADME. As to the method: (§1) Targeted carbonate or carbamate 7a or 8a (30 μg) was dissolved in PBS pH 7.4 (1.5 mL) and incubated at 37° C. under gentle agitation. Aliquots (100 μL) were removed at different time points and diluted 1:1 with an internal standard of etodolac (TCI Chemicals) in MeOH (20 μg mL^−1). Small molecules were separated from salts using an Oasis WAX online sample preparation column (Waters) on an Alliance HT separation module (50 μL injections, 0.3 mL min^−1 0.1% aq. HCOOH for 3 min followed by 0.3 mL min^−1 MeCN for 7 min, Waters) and analyzed by mass spectrometry/mass spectrometry (MS/MS) on a Quattro API spectrometer (Waters) monitoring appropriate multiple reaction monitoring (MRM) transitions for 8a, 8b and etodolac as standard. Measurements were performed in triplicate, peaks integrated and the fraction of intact test compounds calculated as fraction of signal at time t divided by signal at time zero. Since signals due to etodolac were constant over time a further correction using the internal standard as reference was omitted. For stability measures in mouse serum, compounds were dissolved in freshly thawed mouse plasma (Invitrogen), aliquots taken at different time points and diluted with an equal volume of MeCN. After vigorous vortexting for 1 min, protein precipitate was spun down and the supernatant analyzed as above.
Targeted DM1 conjugate 9a (230 μg, 140 nmol) was dissolved in PBS pH 7.4 (1 mL) and incubated at 37° C. under gentle agitation. Aliquots (100 μL) were removed at different time points and diluted 1:1 with an internal standard solution of etodolac (TCI Chemicals) in MeCN (20 μg mL^−1). Water (600 μL) was added and aliquots of this mixture (50 μL) analyzed over a Syngergi RP Polar column (150×4.6 mm, 4 μm, Phenomenex) on an Alliance HT separation module (1 mL min^−1 5% MeCN in 0.1% aqueous TFA to 100% MeCN over 20 min, Waters). Analytes were detected using a Water 2996 photo array UV/VIS detector (Waters). Measurements were performed in triplicate, peaks integrated and the fraction of intact test compounds calculated as fraction of signal at time t divided by signal at time zero. Since signals due to etodolac were constant over time a further correction using the internal standard as reference was omitted. For stability measures in mouse serum, compounds were dissolved in freshly thawed mouse plasma (Invitrogen), aliquots taken at different time points and diluted with an equal volume of MeCN. After vigorous vortexting for 1 min, protein precipitate was spun down and the supernatant analyzed as above.

The nature of data set [3]: Hydrolytic stability in PBS pH 7.4 at 37 C (MS/MS or HPLC). Set-up: half-life: dose or concentration left out as unconfirmed. It is filed as physicochemical. The settings on record: PBS pH 7.4, 37° C.; for half-life: read-out: t1/2 in PBS (converted). As to the method: as §1
Targeted DM1 conjugate 9a (230 μg, 140 nmol) was dissolved in PBS pH 7.4 (1 mL) and incubated at 37° C. under gentle agitation. […] Water (600 μL) was added and aliquots of this mixture (50 μL) analyzed over a Syngergi RP Polar column (150×4.6 mm, 4 μm, Phenomenex) on an Alliance HT separation module (1 mL min^−1 5% MeCN in 0.1% aqueous TFA to 100% MeCN over 20 min, Waters). Analytes were detected using a Water 2996 photo array UV/VIS detector (Waters). Measurements were performed in triplicate, peaks integrated and the fraction of intact test compounds calculated as fraction of signal at time t divided by signal at time zero. […] After vigorous vortexting for 1 min, protein precipitate was spun down and the supernatant analyzed as above.

A short description of data set [4]: Estimation of the recommended therapy dose (tolerability). The class given is in vivo, mouse. As to conditions: for tolerated dose: nude mice, one mouse per regimen. As to the method: Estimation of the recommended therapy dose of a) 7a and b) 8a in nude mice was performed by studying different dosages using a schedule of five injections on five consecutive days compared to vehicle (5% DMSO in PBS pH 7.4). The dosage regimens were 0.4 nmol/day, 1.3 nmol/day, 4.0 nmol/day and 13.3 nmol/day. One mouse was used for each regimen.
Estimation of the recommended therapy dose and schedule of DM1 conjugate 9a was studied in SKRC52 tumor bearing nude mice. One mouse was used for testing each dosing scheme. Injections were given daily starting on day 0 in 5% DMSO in PBS pH 7.4 (150 μL). […] Since the animals in this study weighed on average 18% less than those used in the therapy study, a dose of 70 nmol per injection was used for the therapy experiment.

Data set [5] concerns the target T1, recombinant carbonic anhydrase IX (Homo sapiens, UniProt Q16790).
T1 construct: Recombinant CAIX was expressed as described previously; made in house
Briefly: biochemical. The class given is binding. How it is done:
The FP was measured on a Spectra Max Paradigm multimode plate reader (Molecular Devices). Experiments were performed in triplicate and data analyzed as described by Wang and co-workers.^[4]

Data set [6] relates to subcutaneous SKRC52 tumors. Briefly: Analysis of tumor penetration by fluorescence microscopy. The class given is in vivo, mouse. The settings on record: 50 nmol intravenous; for tumor staining / penetration by fluorescence microscopy: Alexa546 probes. As to the method: After warming to −20° C., samples were cut into sections of 10 μm width and directly imaged on an Axioskop 2 fluorescence microscope (Zeiss).

[7] abbreviates: five injections on five consecutive days.
The mark [8] stands for this setting: 7×70 nmol on 7 consecutive days.

A word on the EC50: it is the concentration needed to bring the measured effect to its halfway point. The term Kd denotes the constant that tells how readily two partners part at equilibrium. In the case of `COc1cc2[nH]cc(C(=O)N3C[C@@H](CCl)c4c3cc(OC(=O)OCCSSC[C@H](NC(=O)[C@H](CC(=O)O)NC(=O)[C@H](CCCNC(=N)N)NC(=O)[C@H](CC(=O)O)NC(=O)CCCCn3cc(CCCC(=O)Nc5nnc(S(N)(=O)=O)s5)nn3)C(=O)O)c3ccccc43)c2cc1OCCN(C)C` [Compound 7a, AAZ Targeted CBI Carbonate], the tumor growth effect entry in the data set on SKRC52 xenograft tumors is on record as “statistically significant tumor growth retardation”. This molecule displayed a concentration giving a half-maximal response (EC50) in data set [1] of 0.7 ± 0.1 nM. The half-life in data set [2] (mouse plasma, MS/MS, errors <1 min, read-out: Half lives in mouse plasma) is 43 min; in data set [2] (mouse serum, read-out: t1/2 in mouse serum in vitro) it was 43 min; in data set [3], 900 min. Besides, the “tolerability at 13.3 nmol/day” value in data set [4] (setting [7]) is on record as “poorly tolerated”. Besides, the tolerated dose result in data set [4] (setting [7]) was “up to 4.0 nmol/day”. In addition, the Kd in data set [5] came out at 7.3 ± 0.5 nM. For the same molecule, in data set [5], the “binding affinity for recombinant CAIX in vitro (in words)” value (shortened to “binding affinity for recombinant CAIX”) is “retain binding affinity for recombinant CAIX in vitro”.
With `COc1cc2[nH]cc(C(=O)N3C[C@@H](CCl)c4c3cc(OC(=O)N(C)CCSSC[C@H](NC(=O)[C@H](CC(=O)O)NC(=O)[C@H](CCCNC(=N)N)NC(=O)[C@H](CC(=O)O)NC(=O)CCCCn3cc(CCCC(=O)Nc5nnc(S(N)(=O)=O)s5)nn3)C(=O)O)c3ccccc43)c2cc1OCCN(C)C` [Compound 8a, AAZ Targeted CBI Carbamate], the tumor growth effect result with SKRC52 xenograft tumors is on record as “did not lead to any retardation in tumor growth”. The half-life in data set [2] (plasma, MS/MS, errors <1 min, read-out: Half lives in mouse plasma) is 61 min; in data set [2] (serum, read-out: t1/2 in mouse serum in vitro), 61 min; in data set [3] (buffer) it was above 1440 min. Besides, in data set [4] (setting [7]), the tolerated dose is at most 13.3 nmol/day. Besides, the equilibrium dissociation constant (Kd) in data set [5] is 40.3 ± 2.6 nM. Further, the “binding affinity for recombinant CAIX” value in data set [5] is listed as “retain binding affinity for recombinant CAIX in vitro”.
As for `COc1cc2cc(c1Cl)N(C)C(=O)C[C@H](OC(=O)[C@H](C)N(C)C(=O)CCSSC[C@H](NC(=O)[C@H](CC(=O)O)NC(=O)[C@H](CCCNC(=N)N)NC(=O)[C@H](CC(=O)O)NC(=O)CCCCn1cc(CCCC(=O)Nc3nnc(S(N)(=O)=O)s3)nn1)C(=O)O)[C@@]1(C)O[C@H]1[C@H](C)[C@@H]1C[C@@](O)(NC(=O)O1)[C@H](OC)/C=C/C=C(\C)C2` [Compound 9a, Targeted DM1 Conjugate], in the data set on SKRC52 xenograft tumors (setting [8]), the anti-tumor effect entry is given as “potent anti-tumor effect”, the “time after start of treatment at which tumors started regrowing” value is given as 20 days and the “toxicity (body weight)” value was “no detectable body weight loss”. Also, in data set [2] (mouse serum, HPLC, read-out: t1/2 in mouse serum (converted)), the half-life was 1200 min. Further, the “decomposition in PBS (in words)” value in data set [3] (HPLC) is on record as “No decomposition was observed”. The “tolerability of six doses of 60 nmol” value in data set [4] (daily injections, SKRC52 tumor bearing nude mice) is “tolerated with only minimal weight loss”. Further, in data set [5], the dissociation constant Kd turned out to be 26.5 ± 2.5 nM and the “binding affinity for recombinant CAIX” value is reported as “retain binding affinity for recombinant CAIX in vitro”.
As to “N1-(2-(2-(2-aminoethoxy)ethoxy)ethyl)-N4-(5-sulfamoyl-1,3,4-thiadiazol-2-yl)succinamide Alexa546 conjugate [Compound 1b]”, in data set [6], the “fluorescence in organs by microscopy” value is “strong fluorescence due to 1b inside the tumor and the intestine”; the “tumor staining / penetration by fluorescence microscopy” value was “staining of the tumor with 1b is initially highest in well-perfused areas”.
As for “tert-butyl (2-(2-(2-aminoethoxy)ethoxy)ethyl)carbamate Alexa546 conjugate [Compound 6b]”, the “tumor staining / penetration by fluorescence microscopy” value in data set [6] was “cannot be detected inside the tumor”.
